Results: a protein production outcome set (Wang et al. 2014)

Assay: label from the status in PepcDB records

**Q.** For “MSCHLSYLEGTMEFMISGRNLTVSDRFREYAGEKISKIESLGDKVQRVDAKVSKETNPRQTPGELTVEVTVLGRGPVIRAEATAADKFAAFDLAYNKLLERLRRAKDRKKVHHGRHTPKAVREATATLEPASASEPLYVEASNHQESAPPVDERSPYDIENDIPAGDSPVLIRRKVFPAASLTLDDAVDNMELVGHNFYLFLDKETNAPSVVYRRSGWTYGVITLDSTCEPGEEAVEEKIHAYRSDDQAATAK”, which protein production is on record?
**A.** failed

**Q.** Which protein production does the source give for “MSCVHYKFSSKLNYDTVTFDGLHISLCDLKKQIMGREKLKAADCDLQITNAQTKEEYTDDNALIPKNSSVIVRRIPIGGVKSTSKTYVISRTEPAMATTKAIDDSSASISLAQLTKTANLAEANASEEDKIKAMMSQSGHEYDPINYMKKPLGPPPPSYTCFRCGKPGHYIKNCPTNGDKNFESGPRIKKSTGIPRSFMMEVKDPNMKGAMLTNTGKYAIPTIDAGRLLFHKLGTMGHKQIDTYFWNRGDVYGATATQITHLREAYAIGKKEKPPFLPEEPSSSSEEDDPIPDELLCLICKDIMTDAVVIPCCGNSYCDECIRTALLESDEHTCPTCHQNDVSPDALIANKFLRQAVNNFKNETGYTKRLRKQLPPPPPPIPPPRPLIQRNLQPLMRSPISRQQDPLMIPVTSSSTHPAPSISSLTSNQSSLAPPVSGNPSSAPAPVPDITATVSISVHSEKSDGPFRDSDNKILPAAALASEHSKGTSSIAITALMEEKGYQVPVLGTPSLLGQSLLHGQLIPTTGPVRINTARPGGGRPGWEHSNKLGYLVSPPQQIRRGERSCYRSINRGRHHSERSQRTQGPSLPATPVFVPVPPPPLYPPPPHTLPLPPGVPPPQFSPQFPPGQPPPAGYSVPPPGFPPAPANLSTPWVSSGVQTAHSNTIPTTQAPPLSREEFYREQRRLKEEEKKKSKLDEFTNDFAKELMEYKKIQKERRRSFSRSKSPYSGSSYSRSSYTYSKSRSGSTRSRSYSRSFSRSHSRSYSRSPPYPRRGRGKSRNYRSRSRSHGYHRSRSRSPPYRRYHSRSRSPQAFRGQSPNKRNVPQGETEREYFNRYREVPPPYDMKAYYGRSVDFRDPFEKERYREWERKYREWYEKYYKGYAAGAQPRPSANRENFSPERFLPLNIRNSPFTRGRREDYVGGQSHRSRNIGSNYPEKLSARDGHNQKDNTKSKEKESENAPGDGKGNKHKKHRKRRKGEESEGFLNPELLETSRKSREPTGVEENKTDSLFVLPSRDDATPVRDEPMDAESITFKSVSEKDKRERDKPKAKGDKTKRKNDGSAVSKKENIVKPAKGPQEKVDGERERSPRSEPPIKKAKEETPKTDNTKSSSSSQKDEKITGTPRKAHSKSAKEHQETKPVKEEKVKKDYSKDVKSEKLTTKEEKAKKPNEKNKPLDNKGEKKKKK” here?
**A.** not failed

**Q.** With “MSCWKTINLVKDYGGMRIVLTAVSLMILFFIPEYLAMQLIHPQTVQRGDHALLFAGLLVAAIIAHKILHILPMISKKKLEKKIYWLKMRTWREIPKNMMLVSLLCPFLVITPVLFYAGAAMPSFAHYFCIISSIHFGYCLPDFLFAWKLIKAPKNCFVDQEADDFDILIQK” as the sequence, how does the protein production read?
**A.** failed

**Q.** For “MSDAFTDVAKMKKIKEEIKAHEGQVVEMTLENGRKRQKNRLGKLIEVYPSLFIVEFGDVEGDKQVNVYVESFTYSDILTEKNLIHYLD”, which protein production is on record?
**A.** not failed

**Q.** Which protein production does the source give for “MSDAPTSPRFSAATSTRLLDHAQLEALCADYDGFLLDLWGVVMDGTEAFPGALAWLARRHAEGRPVWFLSNSSSSVAEMSAGLERLGIRRDWFAGITTSGQLTIDALLQTAEYRRGGIYLAGVGLAQQSWPAEIRERFVEDIAQAALIVGVGSFPQDELEQRFAPLRGATDLPFLCANPDRVVVSGGRTVYGAGMLAELFSEEGGQVSWYGKPDPAAFRIAQRQLEARGARHILFVGDSLVTDVPGALAARIDTLWLGATGIHREALGAEFNGALDEERVRSLLHGYPIRPHFAAPGLV” here?
**A.** failed

**Q.** For “MSDDLALTALAASSFSLPELREGQLAGMTALVERRDVLAVMPTGYGKSATYQVAALYLHNKTGRPAVVVSPLIALQEDQLDGLAEHLGEGAGVAINSSRSDAEVEAAWQAVESGQAAFLFLAPEQLSKRETVERIANLDITMFVVDEAHCVSSWGHDFRPDYLELGHVREHLGNPPVIALTATASPPVRDEIVKRLGMTEPVVLVRGFDRPNISLDVVRHQEDKGKRKAVMEQVVALAKAEGLGLLYAATRKATEKYAAKLTEHGLRAEAYHAGRADSDRESIHERFLDDQLDVVVATTAFGMGIDKPNVRFVVHADIPESLDSYYQEIGRAGRDGEPATAILHYRAEDLGLRKFFATHSPDAEALTAVLKVIKNAGAPVPKTALVELTGFPARRVTALVNQLEEAGAVTTGKRGTRLSSKAKLTTLVDRAVELAEARQRVDQSRLTMMRAYAETDACRRQFLLGYFGEDLPEPCGNCDACAEIHDDAGSGSAGHLTSTAENLFPLQSTVIHKEWGPGLVMRHEDDVMTVLFEQEGYKTLSRAAVVEHELLKPA”, which protein production is on record?
**A.** failed

**Q.** With “MSDFEKQLWKAADKLRKNIDAAEYKHIVLGLIFLRYISDAFEELYEKLQQGEGEYAGADPEDRDEYKAENVFFVPAISRWPYLQSEAKKPDIGKSVDNAMDAIEKENPLLRGVLPKVFARGNLDPTNLGGLIDLVSNVALGDAKSRSADVLGHVFEYFLGEFALAEGKKGGQFYTPRSVVELLVEMLEPYNGRVFDPCCGSGGMFVQSEKFVADHQGKINDISIYGQESNQTTWRLAKMNLAIRSIDSSQVKWNNEGSFLNDVHKDLKADYVIANPPFNDSDWSGDLLRKDGRWKYGVPPAGNANYAWIQHFLYHLGPSGQAGFVLAKGSLTSKSSGEGDIRKELVEARLVDCIVNLPPKLFLNTQIPASLWFLSRNKANGKHRNRTDEILFIDARNMGHLINRRTREFSPEDIQQIAGTYHKWRNPEGNYEDVKGFCNSAPIERVRELGYVLTPGRYVGLPDDEDNFDFNERFSALKAEFEEQLKEEERLNLRIAENLKKVKPA” as the sequence, how does the protein production read?
**A.** failed

**Q.** With “MSDFNKYCEEAAREALPDSEDEEDIGDEDTCSAQDLAAEFQLKYKPQDEVSVSLQREYVLSLAADQGFSRMAAGLSNSAVHIYNLDSGAGKLENFSYLPPTDSPQSVSICGVRFLDEGPHNILVGTTDGYVRLYDLRLRGEQARFKYTQHPNVPPVPKSLSCFDRNANGRIICCGTEQFHSNAFLVFFDVRERQQMGVYFESHEDDITSLRFHAQNPDLLATGSVDGLVNVFDVKEPDEDEALLNTFNTESSVARLAWHRNVYDKDIISCVTTTGDFKSYECEEGDEVASFERPDVTAAIRRKKAANFNLINAHNQEDGGVFLLAGTNFNKGEILRSVSVTSKNSLQPLANFQGNKQIVRDSLFDSKRSLLFTGGESGIVTVWAQDASGTAFSSEKLKARKEKKSRKQAPY” as the sequence, how does the protein production read?
**A.** failed

**Q.** For “MSDHHHHDHHLGCACCALPLLELLDQPQLSQDEWQRELETLAPELGKRFPRPGQQESAIFHGGSIRPLAAAGPSRVAALGMSGGRIVAMGDLDDVRAAMASHRPFREIDLDGRALLPGLVDPHMHIMPSALFKSWISLSAFGVTRNSQDGEDAQVLNPDYSYQQIKDKLLPAIAQAKQPGAASNWVLGFGVDPSLMREWVDIKASSLDELAPPDDNIAVFLLNASGHIGYANTAAMKEAGLTPEQIKKCEGVLTEANIIQIMGKIPKRILAKDLLRNLLMVLHDAASRGNTMLFDAGLGSSLKEAEVRLLQLIAKLGLSPVRIAGALYSNELTQMRQWMKLYQPDLNSQDDSHFSIKALKLVADGSNQGLTGFQFSPYKNVAQHPVPDVPPIGLFNFKIPDAPSSENENRLPDSLASYLHLALGSGWPVLVHSNGEQAMELVLDSYQEAISATRADARHLRLRVEHASLLTDATLSRMASMGLSPSFLIGHVGYWGYALQNDILGEARTELLDRCKSARDAGIRISLHSDHFVSPLGSLRMAEQAIYRKMEGAPQEEKPVLNKEECLSHEQALAAVTLDAAWQCHMDHLVGSLEPGKLADMVILGQDPLDDGVTDLRHINVHETWRGGARVYANPNTH”, which protein production is on record?
**A.** failed

**Q.** For “MSDINKPFLVVIVGPTASGKTELSIELAKQINGEIISGDSMQVYKQMDIGTAKVTNEEMDGIPHYMIDILNPDDSFSVYDFKLRAQALIEDITSRGKIPIIAGGTGLYIQSLIYDYPFDDETVSKEVEQKTQLQLQKLEPLTNQEVHDYLATFDPQSAKDIHPNNRKRVLRAIEYYLNTKKLISSRKKVQQFTENYDTLLIGIEMSRKTLYSRINKRVDIMLGHGLFNEVKNLVEQGYESTQSMQAIGYKELVPVVNGELSIDQAVETLKQHSRQYAKRQLTWFKNKLTVQWFNRETMSLQMMLDEITTQINKRSSKHDCKPQHPRSSTREL”, which protein production is on record?
**A.** failed

**Q.** Which protein production does the source give for “MSDINTVNLINQMKTLAAQAEGIKPDSGLNHASFSSVFQQALNQVNELSQTADSLKTRFEIGDPNVSLGEVMIASQKSNLGFEATLRVRNKLVQAYQDIMNMPV” here?
**A.** failed
